Laboratory results taken from patent US20250269003A1, “NANO-ENHANCED VACCINE” (University of Virginia Patent Foundation, priority 2022, published 2025).

Key:
[1] = test system: CD4^+ T cells from sentinel immunized nodes (SIN1, SIN2); test: CFSE dye-dilution CD4+ T cell proliferation assay, sentinel immunized node cells; type: cell-based, human; conditions: SIN1 and SIN2 donor cells, 2 μg/mL peptide, 5 days
Text: (§1) Ex Vivo Lymphocyte Stimulation using Immunogenic TSY encapsulated nanoliposomes. Freshly obtained (cryopreserved) peripheral blood mononuclear cells (PBMC) and lymphocytes from the sentinel immunized nodes (SIN) of two patient donors (under IRB protocols, clinical trial Mel41 (NCT00089219; IRB #10464; Slingluff et al., 2008b) were utilized to assess CD4^+ T cell proliferation after treatment with the anionic TSY (MAGE-3281-295 peptide; Table 1) MIP-KDO2 nanoliposome. Firstly, a cell viability study was performed using a live-dead marker and flow cytometry to ensure that cell viability was not impacted by the presence of either the peptides or the liposomes. In this study, SIN lymphocytes from the two patient donors (SIN1 and SIN2) were treated with a variety of free peptides and liposome combinations. […] Cells were acquired on a FACSCANTO™ II flow cytometer (BD Biosciences) maintained by the Carter Immunology Center at the University of Virginia and the data analyzed using FlowJo software (version 10; BD Biosciences).
(§2) Using blood samples from melanoma patients who had previously been vaccinated with a 6MHP vaccine on the Mel41 trial and had developed a robust CD4^+ T cell immune response to the TSY antigen (Slingluff et al., 2008b), lymphocyte viability and CD4^+ T cell proliferation to the TSY nano-formulations ex vivo were analyzed. […]

[2] = Ideal pH range for peptide stability and dissolution; type: physicochemical; conditions: pH range required for stability and dissolution of the peptide
Text: (§3) Encapsulation of Melanoma Peptides within Nanoliposomes. The six melanoma peptides that induce melanoma-reactive CD4^+ T cells in patients as well as their protein epitope and ideal pH range for solubility are provided in Table 1. A neutral formulation was initially chosen to encapsulate all peptides and then, through an iterative process, modified formulations to optimize encapsulation efficiencies for several of the peptides. Through this process, three different nanoliposome formulations (neutral, cationic, and anionic) suitable for distinct peptides were identified. However, all of the presently disclosed formulations contained the same base lipid components, including 1,2-distearoyl-sn-glycero-3-phosphocholine (DSPC); 1,2-Dioleoyl-sn-glycero-3-phosphoethanolamine (DOPE); 1,2-distearoyl-sn-glycero-3-phosphoethanolamine-N-[methoxy(polyethylene glycol)-2000] (ammonium salt) (PEG2000PE); KDO2; cholesterol; and a fluorophore (either rhodamine or 1,1′-Dioctadecyl-3,3,3′,3′-Tetramethylindodicarbocyanine, 4-Chlorobenzenesulfonate Salt (DiD)). Each formulation contained DSPC and DOPE at a 2.14:1 molar ratio to form a stable, spherical nanoparticle. In addition, cholesterol at a 30 molar percent was incorporated to increase rigidity and to reduce leakiness. PEG(2000)-PE at 2.5 molar percent was incorporated for biological stability, KDO2 was added to all formulations at 0.1 molar percent, and a fluorescent probe (rhodamine or DiD) was added at 0.2 molar percent for subsequent biodistribution imaging studies. Keeping the molar ratios of these key components constant, dihexadecyl phosphate (DHP) was incorporated at 10 molar percent for the anionic formulation and positively charged lipid 1,2-dioleoyl-3-trimethylammonium-propane (chloride salt) (DOTAP) at 7 molar percent for the cationic formulation. The lipid mixtures were then dried down in a nitrogen blower for roughly 2 hours until all of the chloroform was evaporated. Then, the peptide solutions, (or 1×PBS for the “ghost” formulation), was added to the dried down lipids, the tubes were then vortexed and placed in a heat shaker at 60° C. for 2 hours, followed by sonication in a 60° C. sonic bath for roughly five minutes. After sonication, the liposomes were extruded through a 100-nanometer pore membrane eleven times to create uniformly sized liposomes. The extruded liposomes were subsequently run through a Sepharose gel bead column to separate the liposomal drugs from the free drug. The solution was analyzed using Dynamic Light Scattering (DLS; polydispersity and average hydrodynamic diameter of particles in solution), and mass spectrometry.
(§4) To further ensure optimal encapsulation efficiency of the MHPs, distinct dissolution buffers tailored to each peptide's optimal pH range and previously optimized for in vivo injection of the free peptides into patients enrolled in earlier clinical studies were utilized. Specifically, for the neutral peptide formulations, 1.33 mg/ml sodium bicarbonate (NaHCO3) in a 1:2 solution of lactated Ringers solution (LR) and water respectively (B1); for the cationic formulation, 5 mg/ml NaHCO3 in water (B2); for the WNR anionic formulation, 1 mg/ml NaHCO3 in water (B3); and for the TSYVKVLHHMVKISG (TSY; SEQ ID NO: 1) anionic formulation, 1:9 ratio of 2-(N-morpholino) […] (MES) buffer and water (B4).

SIN lymphocytes = test: Lymphocyte viability, live-dead marker and flow cytometry; type: cell-based, human; conditions: patient SIN samples; free TSY compared with nanoliposomal KDO2/TSY
Text: as §1, §2

[3] = Peptide encapsulation within nanoliposomes (mass spectrometry); type: physicochemical; conditions: for Original mass encapsulation: neutral formulation and 1X PBS; for Optimized mass encapsulation: new liposome formulation (charge and buffer B1-B4) keeping optimal pH, full vaccine, n = 3 separate experiments in triplicate; for Encap. Efficiency: optimized formulation, based upon initial 500 μg/ml peptide concentration; for Encap. improvement: optimized versus original mass encapsulation
Text: as §3, §4
Each of the six Melanoma Helper Peptides (6MHP) were initially incorporated in a neutral liposome formulation containing: (DSPC); (DOPE); (PEG2000PE); KDO2; cholesterol; and a fluorophore in ratios of 4.60:2.14:0.25:0.01:3.00:0.02 respectively (see Table 2). After quantifying initial encapsulation masses, an iterative approach was utilized to improve encapsulation via modifying the charge and lipid ratios of the liposomal formulation as well as the buffer for the peptide. The proportional improvements in encapsulation as well as the encapsulation efficiencies are depicted in Table 3.

Sequence | CD4^+ T cell proliferation (CFSE dilution) [1] | Ideal pH range [2] | cell viability (SIN lymphocytes) | Original mass encapsulation [3] [µg/mL] | Optimized mass encapsulation [3] [µg/mL] | Encap. Efficiency [3] [%] | Encap. improvement [3] [X]
TSYVKVLHHMVKISG (listed as Homo sapiens) [melanoma helper peptide, amino acids 281-295 of human MAGE-3] | expected CD4^+ T cell proliferation response was observed | 5.0-5.5 | no discernable differences in cell viability | 0.17 ± 0.001 | 141.35 ± 2.18 | 28.27 | 831
LLKYRAREPVTKAE (listed as Homo sapiens) [melanoma helper peptide, amino acids 121-134 of human MAGE-1,2,3,6] |  | 6.0-8.0 |  | 34.56 ± 0.69 | 57.26 ± 14.39 | 11.45 | 1.66
WNRQLYPEWTEAQRLD |  | 7.0-8.0 |  | 4.81 ± 0.09 | 7.64 ± 0.99 | 1.53 | 1.59
AQNILLSNAPLGPQFP (listed as Homo sapiens) [melanoma helper peptide, amino acids 56-70 of human tyrosinase] |  | 8.5-9.0 |  | 0.02 ± 0.005 | 6.25 ± 1.13 | 1.25 | 312
FLLHHAFVDSIFEQWLQRHRP (listed as Homo sapiens) [melanoma helper peptide, amino acids 386-406 of human tyrosinase] |  | 6.0-8.0 |  | 28.15 ± 2.05 | 58.61 ± 4.96 | 11.72 | 2.08
RNGYRALMDKSLHVGTQCALTRR (listed as Homo sapiens) [melanoma helper peptide, amino acids 51-73 of human Melan-A/MART-1] |  | 6.0-8.0 |  | 22.37 ± 0.30 | 19.18 ± 6.36 | 3.29 | 0.85
